Molecular target: Rubisco (Chlamydomonas reinhardtii (endogenous, purified from cells)) (UniProt P00877)
Assay: fluorescence correlation spectroscopy; 20 nM EPYC1-GFP mixed with 2 μM Rubisco (no phase separation at this concentration); diffusion coefficient of EPYC1-GFP from a single-species fit

“EPYC1-GFP, unphosphorylated (mock-treated) (natural protein)” showed a diffusion coefficient of EPYC1-GFP with Rubisco (60 μm^2/s without Rubisco) of 41 μm^2/s.

From publication doi:10.1101/2025.10.09.681382
